Measurements as given in patent publication US20260055194A1 (LYCIA THERAPEUTICS, published 2026).
Read-outs that look alike come from different tables or passages of the source.

How the values were obtained:
[1] = molecular target: human CI-M6PR on K562 cells (human, UniProt P11717 41-2491); test: cell-based or functional assay
[2] = molecular target: T1, purified recombinant CI-M6PR (domains 1-9) protein (human, UniProt P11717 41-1365, limits assumed); test: ELISA on human M6PR, Abs 450nm, antibody about 0.0005-1 ug/mL
T1 construct: domain: domains 1-9; also called human CI-M6PR; wild-type human CI-M6PR

[3] = molecular target: T2, Recombinant human M6PR ECD-His (human, UniProt P11717 41-2304); test: Octet BLI; mIgG from hybridoma supernatant on anti-mouse biosensor, His-tagged human M6PR analyte
T2 construct: extracellular domain; also called recombinant His-tagged human M6PR; human M6PR antigen; not shown: His tag

[4] = molecular target: T1, purified recombinant CI-M6PR (domains …); test: BLI (GatorPrime), antibody on anti-mouse IgG Fc sensor, CI-M6PR (domains 1-9) in solution, global 1:1 fit;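 note: human CI-M6PR tested at a range of concentrations against captured antibodies, measured at 30 °C, analyte diluted in PBS carrying Tween-20, BSA and NaN3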
[5] = molecular target: T1, purified recombinant CI-M6PR (domains …); test: ELISA on human M6PR, Abs 450nm, antibody about 0.0005-1 ug/mL; remark: listed apart in the source
[6] = molecular target: T1, purified recombinant CI-M6PR (domains …); test: as above; remark: listed apart in the source
[7] = molecular target: T1, purified recombinant CI-M6PR (domains …); test: as above; remark: listed apart in the source
[8] = molecular target: T1, purified recombinant CI-M6PR (domains …); test: as above; remark: listed apart in the source
[9] = molecular target: T1, purified recombinant CI-M6PR (domains …); test: as above; remark: listed apart in the source
[10] = molecular target: T1, purified recombinant CI-M6PR (domains …); test: as above; remark: listed apart in the source

Binder	Uptake pHrodo (MFI) [1] [MFI]	EC50 (read off the curve) [2] [µg/mL]	Kd [3] [nM]	Kd [4] [nM]	koff [4] [s⁻¹]	kon [4] [M⁻¹ s⁻¹]	EC50 (read off the curve) [5] [µg/mL]	EC50 (read off the curve) [6] [µg/mL]	EC50 (read off the curve) [7] [µg/mL]	EC50 (read off the curve) [8] [µg/mL]	EC50 (read off the curve) [9] [µg/mL]	EC50 (read off the curve) [10] [µg/mL]
06D1 (antibody, V domains shown, also called Clone # 11) VH: EVQLQQSGAELVRPGASVKLSCTASGFNIKDDYMHWVKQRPEQGLEWIGWIDPENGDTEYASKFQGKATITADTSSNTAYLQLSSLTSEDTAVYYCTTVAPGYYAMDYWGQGTSVTVSS VL: ENVLTQSPAIMSASPGEKVTMTCRASSSVSSSYLHWYQQKSGASPKLWIYSTSNLASGVPARFSGSGSGTSYSLTISSVEAEDAATYYCQQYSGFTFGSGTKLEIK	22400	–	17.1	45.1	0.0111	245000	–	~0.01	–	–	–	–
06H10 (antibody, V domains shown) VH: EVQLQQSGAELVRPGASVKLSCTASGFNIKDDYMHWVKQRPEQGLEWIGWIDPENGDTEYASKFQGKATITADTSSNTAYLQLSSLTSEDTAVYYCTTVAPYYYAMDYWGQGTSVTVSS VL: QIVLTQSPAIMSASLGEEITLTCSASSSVSYMHWYQQKSGTSPKLLIYSTSNLASGVPSRFSGSGSGTFYSLTISSVEAEDAADYYCHQWSSYHTFGGGTKLEIK	65800	–	–	–	–	–	–	–	–	–	–	–
08D8 (antibody, V domains shown, also called Clone # 84) VH: QVQLQQPGAELVKPGASVKLSCKASGYTFTSYWMQWVKQRPGQGLEWIGEIDPSDSYTNYNQKFKGKATLTVDTSSSTAYMQLSSLTSEDSAVYYCARGDYYGSSSWFAYWGQGTLVTVSA VL: DIVMTQAAPSVPVTPGESVSISCRSSKSLLHSNGNTYLYWFLQRPGQSPQLLIYRMSNLASGVPDRFSGSGSGTAFTLRISRVEAEDVGVYYCMQHLEYPFTFGAGTKLELK	10900	–	259	351	0.00185	5250	–	–	–	–	–	–
06D12 (antibody, V domains shown, also called Clone # 10) VH: QVQLQQSGAELMKPGASVKLSCKATGYTFTGYWIEWVKQRPGHGLEWIGEILPGSGSTNYNEKFKGKATFTADTSSNTAYMQLSSLTTEDSAIYYCAYTVVATDWYFDVWGTGTTVTVSS VL: ENVLTQSPAIMSASLGEKVTMSCRASSSVNYMYWYQQKSDASPKLWIYYTSNLAPGVPARFSGSGSGNSYSLTISSMEGEDAATYYCQQFTSSPWTFGGGTKLEIK	47000	–	9.56	–	–	–	–	–	–	–	–	–
11B12 (antibody, V domains shown, also called Clone # 75) VH: QVQLQQSGPELVKPGASVKISCKASGYSFTSYYIHWVKQRPGQGLEWIGWIYPGSGNTKYNEKFKGKATLTADTSSSTAYMQLSSLTSEDSAVYYCARGNWHWYFDVWGTGTTVTVSS VL: EIVLTQSPALMAASPGEKVTITCSVSSSISSSNLHWYQQKSETSPKPWIYGTSNLASGVPVRFSGSGSGTSYSLTISSMEAEDAATYYCQQWSSYPLTFGAGTKLELK	43000	–	90.6	237	0.0112	47400	–	–	–	–	–	–
03C7 (antibody, V domains shown, also called Clone # 85) VH: QVQLQQSGPELVKPGASVKISCKASGYSFTSYYIHWVKQRPGQGLEWIGWIYPGSGNTKYNEKFKGKATLTADTSSSTAYMQLSSLTSEDSAVYYCARMGSSYWYFDVWGTGTTVTVSS VL: ENVLTQSPAIMAASLGQKVTMTCSASSSVSSSYLHWYQQKSGASPKPLIHRTSNLASGVPARFSGSGSGTSYSLTISSVEAEDDATYYCQQWSGYPLTFGAGTKLELK	41700	–	17.5	24.9	0.0154	618000	–	–	–	–	–	~0.01
06F1 (antibody, V domains shown, also called Clone # 67) VH: EVQLQQSGAELVRPGASVKLSCTASGFNIKDDYMHWVKQRPEQGLEWIGWIDPENGDTEYASKFQGKATITADTSSNTAYLQLSSLTSEDTAVYYCTNYYGSSPFDYWGQGTTLTVSS VL: QIVLTQSPAIMSAFLGERVTMTCTASSSVSSRYLHWYQQKPGSSPKLWIYSTSNLASGVPARFSGSGSGTSYSLTISSMEAEDAATYYCHQYHRSPLTFGAGTKLELK	34200	–	17.3	–	–	–	–	–	–	–	–	–

Now from value to binder:

Uptake pHrodo (MFI) [1] [MFI]	EC50 (read off the curve) [2] [µg/mL]	Kd [3] [nM]	Kd [4] [nM]	koff [4] [s⁻¹]	kon [4] [M⁻¹ s⁻¹]	EC50 (read off the curve) [5] [µg/mL]	EC50 (read off the curve) [6] [µg/mL]	EC50 (read off the curve) [7] [µg/mL]	EC50 (read off the curve) [8] [µg/mL]	EC50 (read off the curve) [9] [µg/mL]	EC50 (read off the curve) [10] [µg/mL]	Binder
30800	~0.02	5.27	6.33	0.00104	164000	–	–	–	–	–	–	43C8 (antibody, V domains shown, also called Clone # 28) VH: EIQLQQSGPELVKPGASVKMSCKASGYTFTDYVISWVKQRTGQGLEWIGEIYPGSHTYYNEKFKGKATLTADKSSNTAYMQLSSLTSEDSAVYFCALTAGAMDYWGQGTSVTVSS VL: NIMMTQSPSSLAVSAGEKVTMSCKSSQSVLYSSNQKNYLAWYQQKPGQSPKLLIYWASTRESGVPDRFTGSGSGTDFTLTISSVHAEDLAVYYCHQYLSSYTFGGGTKLEIK
36000	–	30	108	0.00872	81000	~0.01	–	–	–	–	–	45A12 (antibody, V domains shown, also called Clone # 36) VH: QVQLQQSGAELMKPGASVKISCKATGYTFSTYWIEWVKQRPGHGLEWIGEILPGSGSTNYNEKFKGKATFTADASSNTAYMQLSSLTSEDSAVYYCARDGGAMDYWGQGTSVTVSS VL: NIMMTQSPSSLAVSAGEKVTMSCKSSQRVLYSSNQKNYLAWYQQKPGQSPKLLIYWASTRESGVPDRFTGSGSGTDFTLTISTVQPEDLAVYYCHQYLSSRTFGGGTKLEIK
12500	–	10.5	10	0.000454	45300	–	–	~0.01	–	–	–	17F11 (antibody, V domains shown, also called Clone # 55) VH: EVQLQQSGPELVKPGASVKMSCKASGYTFTDYNMHWVKQSHGKSLEWIGYINPNNGGTNYNQKFQGKATLTVNKSSRTAYMELRSLTSEDSAVYYCVRFYYGSRYYAMDYWGQGTSVTVSS VL: DIVMTQSPATLSVTPGDRVSLSCRASQSISDYLHWYQQKSHESPRLLIKYASQSISGIPSRFSGSGSGSDFTLSINSVEPEDVGVYYCQNGHSFPYTFGGGTKLEIK
35800	–	12.2	184	0.0123	66700	–	–	–	~0.01	–	–	12D5 (antibody, V domains shown, also called Clone # 26) VH: QVQLQQPGAELVKPGASVKLSCKASGYTFTNYWMHWVKQRPGQGLEWIGMIHPNSGSTNYNEKFKSKATLTVDKSSSTAYMQLSSLTSEDSAVYYCARPHGYPFGYWGQGTTLTVSS VL: ENVLTQSPAIMSASLGEKVTMSCRASSSVNYMYWYQQKSDASPKLWIYYTSNLAPGVPARFSGSGSGNSYSLTISSMEGEDAATYYCQQFTSSPYTFGGGTKLEIK
13400	–	615	–	–	–	–	–	–	–	–	–	16H4 (antibody, V domains shown, also called Clone # 95) VH: QVQLKQSGPGLVQPSQSLSITCTASGFSLTSYGVHWVRQSPGKGLEWLGVIWSGGSTDYSAAFISRLSISKDSSKSQVFFKMNSLQADDTAIYYCARNLPITSYDPSSFYAMDYWGQGTSVTVSS VL: DIQMTQTTSSLSASLGDRVTISCSASQGISNYLNWYQQKPDGTVKLLIYYTSSLHSGVPSRFSGSGSGTDYSLTISNLEPEDIATYYCQQYSKLPFTFGSGTKLEIK
9700	–	2.59	3.44	0.000445	129000	–	–	–	–	–	–	53B11 (antibody, V domains shown, also called Clone # 33) VH: EVQLQQSGPELVKPGTSMKISCKASGYSFTDYTVNWVKQSHGKNLEWIGLINPYNGGTSYNQKFKGKATLTVDKSSSTAYMELLSLTSEDSAVYYCARWGYYYATSYYFAMDYWGQGTSVTVSS VL: DIQMNQSPSSLSASLGDTITITCHASQNINVWLSWYQQKPGNIPKLLIYKASNLHTGVPSRFSGSGSGTGFTLTISSLQPEDIATYYCQQGQSYPWTFGGGTKLEIK
10400	–	8.74	13	0.000616	47200	–	–	–	–	~0.01	–	18G4 (antibody, V domains shown, also called Clone # 45) VH: EVKLMESGGGLVQPGASLRLSCAASGFTFTDYYMSWVRQPPGKAPEWLALIRNKANGYTTEYNASVKGRFTISRDNSQNILYLQMNTLRTEDSATYYCVRGGFAYWGQGTLVTVSA VL: QAVVIQESALTTSPGETVTLTCRSSTGAVTTSHYAIWVQEKPDHLFTGLIGGTNNRVPGVPARFSGSLIADKAALTITGAQTEDEAIYFCALWYTNQFIFGSGTKVTVL
9980	–	43.1	62.2	0.000789	12700	~0.02	–	–	–	–	–	21D5 (antibody, V domains shown, also called Clone # 78) VH: QVQLKQSGPGLVQPSQSLSITCTVSGFSLTRYGVHWVRQSPGKGLEWLGVIWRGGSTDYNAAFMSRLSITKDNSKSQVFFKMNSLQADDTAIYYCAKEGTGILDSWGQGTTLTVSS VL: DIVLTQSPASLAVSLGQRATISCRASKSVSTSGYSYMHWYQQKPGQPPTLLIYLASNLESGVPARFSGSGSGTDFTLNIHPVEEEDAATYYCQHSRELPYTFGGGTKLEIK
